1 molecule from article PMC5658516 (Cell Chemical Biology, 2017) can be followed below.

For the experiment, the target named is T1, His10-Ub-Ub WT (UniProt P0CG48 1-76; P0CG48 1-76).
T1 construct: ubiquitin, distal moiety; ubiquitin, proximal moiety; two ubiquitins head to tail on one chain; also called linear diUb; M1-linked diUb; source: E. coli BL21-CodonPlus (DE3)-RIPL, purified (HisTrap, desalting); not shown: His10, N-terminal, kept
The experiment is described as follows: pull-down; 20 μg OTULINcat-ST with equimolar His10-diUb in PBS, 0.1% BSA, 5% glycerol, 0.1% Triton-X, 2 h 4 °C; OTULINcat-ST held on Strep-Tactin Sepharose, eight washes with 0.5% Triton-X; western blot. The settings on record: both partners purified. For orientation: In western blotting, separated proteins are transferred to a membrane and probed.

B1: OTULINcat-Strep-tag II C129A (domain or fragment, UniProt Q96BN8 80-352, looked up)
chain: LSVAPEMDIMDYCKKEWRGNTQKATCMKMGYEEVSQKFTSIRRVRGDNYAALRATLFQAMSQAVGLPPWLQDPELMLLPEKLISKYNWIKQWKLGLKFDGKNEDLVDKIKESLTLLRKKWAGLAEMRTAEARQIACDELFTNEAEEYSLYEAVKFLMLNRAIELYNDKEKGKEVPFFSVLLFARDTSNDPGQLLRNHLNQVGHTGGLEQVEMFLLAYAVRHTIQVYRLSKYNTEEFITVYPTDPPKDWPVVTLIAEDDRHYNIPVRVCEETSL
notes: also called OTULINcat C129A; OTULIN C129A; source: E. coli BL21-CodonPlus (DE3)-RIPL, purified (StrepTrap, desalting); not shown: Strep-tag II, C-terminal, kept
B1: the binding result is on record as “binds”.
